B1: DGI-2-40F-3-A8 (peptide, not shown: large carriers)
peptide: GQISLAGVAVCSSERMLLAFSSRVFLPGLKVPVTTSQRGSAAAGAPVPYPDPLEPRP
B2: DGI-2-40F-3-A1 (SEQ ID NO: 187) (peptide, not shown: large carriers)
peptide: QYFARGSFQFGLSHVLSAAAAFHLYVFCKRLSRGFGIKDDAAAGAPVPYPDPLEPRP
B3: DGI-2-40F-3-B1 (peptide, not shown: large carriers)
peptide: HGTRLRGVDYVMTWAGWQGYSSRKHVQQAVAGSSPGSDELAAAGAPVPYPDPLEPRP
B4: DGI-2-40F-3-D3 (peptide, not shown: large carriers)
peptide: VQFAMTLSSRLWQHARHPLTDDAPPTVSFGTRRETLAGKAAAAGAPVPYPDPLEPRP
B5: DGI-2-40F-3-C10 (peptide, not shown: large carriers)
peptide: WRARSSGYLFALTPNFGVPHPSSALRRMHGLMARDLRPVAAAGAPVPYPDPLEPRP
B6: DGI-2-40F-4-E1130 (peptide, not shown: large carriers)
peptide: VCRLCRLCRFSMRCGGLSLVLGSAAAFFCEVFVGFCVAAAGAPVPYPDPLEPRP
B7: DGI-2-40F-3-D1 (peptide, not shown: large carriers)
peptide: MGQGFHYNRQPYMSHQCYAFTFSTPFLDGDRIPHGVSRGLAAAGAPVPYPDPLEPRP

Columns and labels:
[1] = target: lactate dehydrogenase (LDH); assay: phage ELISA, 405 nm; LDH coated
DGI-2 polypeptide [2] = target: DGI-2 polypeptide (UniProt Q15004); assay: phage ELISA, 405 nm; DGI-2 coated
[3] = target: antibody raised against ETAG; assay: phage ELISA, 405 nm; anti-E-tag antibody coated
DGI-2 polypeptide [4] = target: DGI-2 polypeptide (UniProt Q15004); assay: phage ELISA, 405 nm; DGI-2 signal over LDH signal
[5] = target: lactate dehydrogenase (LDH); assay: phage ELISA; LDH coated
DGI-2 polypeptide [6] = target: DGI-2 polypeptide (UniProt Q15004); assay: phage ELISA

Sequence of DGI-2 polypeptide (Q15004 whole entry): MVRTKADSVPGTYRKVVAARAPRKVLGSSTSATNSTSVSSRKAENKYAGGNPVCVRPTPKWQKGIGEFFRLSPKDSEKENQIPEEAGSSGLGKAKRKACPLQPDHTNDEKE

Binder | LDH (OD) [1] [OD] | DGI-2 (OD) (DGI-2 polypeptide [2]) | ETAG (OD) [3] [OD] | DGI-2/LDH (OD) (DGI-2 polypeptide [4]) | other results
B1 | 0.8 |  |  |  | 
GEVDCVYALTHRFLSPQVQYHHRPVAAAGAPVPYPDPLEPRP (peptide, not shown: large carriers) [DGI-2-20C-3-A12] | 0.9 | 0.9 | 8.1 | 1 | 
B2 | 0.7 |  |  |  | 
B3 | 0.7 |  |  |  | 
FLLQDFIMDAGSFVKPIGVGGAPVPYPDPLEPR (peptide, not shown: large carriers) [DGI9-20M-4-A414] |  |  |  |  | LDH (ratio over background) [5]: 1.1
B4 | 0.9 |  |  |  | 
B5 | 0.9 | 1.1 | 7.7 | 1.3 | 
SRLALSSQHGLSLVAGRRRGGAPVPYPDPLEPR (peptide, not shown: large carriers) [DGI9-20M-4-A12] |  |  |  |  | LDH (ratio over background) [5]: 0.9
B6 | 0.9 | 2.9 | 8.3 | 3.2 | 
GRAGTSMTELVAWGFVQRVGAAAGAPVPYPDPLEPRP [DGI-2-20F-PP-H10] |  |  |  |  | DGI-2 (OD) (DGI-2 polypeptide [6]): 1.4 OD; DGI-2/LDH (DGI-2 polypeptide [6]): 1.9
B7 | 0.8 |  |  |  | 
WFTHVVEKFAAAGAPVPYPDPLEPRP (peptide, not shown: large carriers) [DGI-2-40F-3-A4] | 0.8 | 1.1 | 6.7 | 1.3 | 
MAGFRGSGLSGYSEARLPRVGAPVPYPDPLEPR (peptide, not shown: large carriers) [DGI9-20M-4-E3] |  |  |  |  | LDH (ratio over background) [5]: 1
DYKGRTMTSPIMSALPVYDRLHGAIGSRGQNMDAAAGAPVPYPDPLEPRP (peptide, not shown: large carriers) [DGI-2-20C-3-B3] | 0.9 | 0.8 | 7.7 | 0.9 | 
LGNASSLIPFLRSVQESGVRAAAGAPVPYPDPLEPRP (peptide, not shown: large carriers) [DGI-2-20F-3-C5] | 0.9 | 1 | 17.7 | 1 | 
WDWSRFGAQLRGAILGRATGGAPVPYPDPLEPR (peptide, not shown: large carriers) [DGI9-20M-4-A627] |  |  |  |  | LDH (ratio over background) [5]: 0.9
